Assay results published in patent US20200131524.

Biological target: T1, 3XHA-LEC2 (Arabidopsis LEAFY COTYLEDON 2, CDS in PB7HA 35S vector), Q1PFR7
T1 chain: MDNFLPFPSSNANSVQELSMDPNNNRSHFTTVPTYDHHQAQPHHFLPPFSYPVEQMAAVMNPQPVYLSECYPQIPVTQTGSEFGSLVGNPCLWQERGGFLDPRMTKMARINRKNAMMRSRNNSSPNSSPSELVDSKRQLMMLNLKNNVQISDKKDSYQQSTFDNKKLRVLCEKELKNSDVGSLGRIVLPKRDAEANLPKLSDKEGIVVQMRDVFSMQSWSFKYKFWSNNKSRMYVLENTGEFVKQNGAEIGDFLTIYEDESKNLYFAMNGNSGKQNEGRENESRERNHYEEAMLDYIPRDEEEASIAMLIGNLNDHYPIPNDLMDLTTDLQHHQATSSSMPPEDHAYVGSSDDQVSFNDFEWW

B1: 3xFLAG-UPL3 (Arabidopsis UBIQUITIN PROTEIN LIGASE 3, CDS in PW1266 35S vector) (protein)
chain: METRSRKRAEATSAAPSSSSSSPPPPPSASGPTTRSKRARLSSSSSSSLAPTPPSSSTTTRSRSSRSAAAAAPMDTSTDSSGFRRGGRGNRGNNNDNSDKGKEKEHDVRIRERERERDRAREQLNMDAAAAAARSADEDDDNDSEDGNGGFMHPNMSSASSALQGLLRKLGAGLDDLLPSSGIGSASSSHLNGRMKKILSGLRAEGEEGKQVEALTQLCEMLSIGTEDSLSTFSVDSFVPVLVGLLNHESNPDIMLLAARALTHLCDVLPSSCAAVVHYGAVSCLVARLLTIEYMDLAEQSLQALKKISQEHPTACLRAGALMAVLSYLDFFSTGVQRVALSTAANMCKKLPSDASDYVMEAVPLLTNLLQYHDSKVLEYASICLTRIAEAFAPYPEKLDELCNHGLVTQAASLISTSNSGGGQASLSVSTYTGLIRLLSTCASGSPLGFRTLLLLGISSILKDILLGSGVSANASVSPALSRPADQIYEIVNLANELLPPLPEGVISLPTSTNALVKGSCQKKSSPSTSGKQEDILKISPREKLLGDQPELLQQFGLDLLPVLVQIYGSSVNGTIRHKCLSVIGKLMYFSSSEMIQSLIGDTNISSFLAGVLAWKDPQVLVPALQVAEILMEKLPETFSKVFVREGVVHAVDQLVLVGKPSHASPTDKDNDCVPGSARSRRYRRRSSNANSDGNQSEEPKNPASLTIGANHNSLDTPTASFMLRETVSSCAKAFKDKYFPSDGGDVDVGVTDDLLHLKNLCTKLTAGIDDHKVKGKGKSKASGPFLGDFSASKEEYLIGVISEILGEISKGDGVSTFEFIGSGVVAALLNYFSCGYFSKEKISELNLPKLRQEGLRRFKAFLEVALPFDGNEGKVPPMTVLIQKLQNALSSLERFPVVLSHPSRSLSGSARLSSGLSALAHPLKLRLCRASGEKTLRDYSSNIVLIDPLASLAAVEEFLWPRVQRSESALKPAAPIGNTEPGTLPSGAGVSSPSSSTPASTTRRHSSRSRSAINIGDTSKKDPVHEKGTSSSKGKGKGVMKPAQADKGPQTRSNAQKRAVLDKDTQMKPASGDSSSEDEELEISPVDIDDALVIEEDDISDDEDDDNEDVLDDSLPMCTPDKVHDVKLADSVDDDGLATSGRQMNPASGGTSGAAAARASDSIDTGIGNSYGSRGALSFAAAAMAGLGAASGRGIRGSRDLHGRTLNRSSDEPSKLIFTAAGKQLSRHLTIYQAVQRQLMLDEDDDDRFGGSDLVSSDGSRFNDIYTIMYQRPDSQVNRLSVGGASSTTPSKSTKSATTNSSVESQSHRASLLDSILQGELPCDLEKSNSTYNVLALLRVLEGLNQLCPRLRAQTLSDRFAEGKITSLDDLSTTAAKVPLDEFVNSKLTPKLARQIQDALALCSGSLPSWCYQLTRACPFLFPFQTRRQYFYSTAFGLSRALNRLQQQQGADGSGSTNEREMRIGRLQRQKVRVSRNRILDSAAKVMEMYSSQKAVLEVEYFGEVGTGLGPTLEFYTLLSHDLQKASLGMWRSSSGDKVSMQIGRDEIEDGKPSAANRDIVLAPLGLFPRPWPSTADISEGGQFHKVIEYFRLLGRVMAKALQDGRLLDVPLSTAFYKLILGQELDLHDIVLFDAELGKTLQELRVVVARKHYLEGVGGDNSSTISDLCLRGCRIEDLSLEFTLPGYPEYILRSGDEIVDITNLEEYISLVVDATVKRGVTRQIEAFRSGFNQVFDITSLQIFTPSELDYLLCGRRELWEVETLAEHIKFDHGYNAKSPAIINLLEIMGELTADQQRAFCQFVTGAPRLPPGGLAVLNPKLTIVRKHSSTSSAAANGAGASETADDDLPSVMTCANYLKLPPYSTKEIMYKKLLYAINEGQGSFDLS
For B1, the “ubiquitylation of LEC2 (HA immunoprecipitation and immunoblot after co-expression in Nicotiana benthamiana)” value was “when co-expressed with 3xFLAG-UPL3, 3XHA-LEC2 ubiquitylation appears enhanced”.
